Assay results reported in paper doi:10.1101/2023.01.24.525215.

T1: TGA5 (Arabidopsis thaliana, UniProt Q39163 1-330)
T1 sequence: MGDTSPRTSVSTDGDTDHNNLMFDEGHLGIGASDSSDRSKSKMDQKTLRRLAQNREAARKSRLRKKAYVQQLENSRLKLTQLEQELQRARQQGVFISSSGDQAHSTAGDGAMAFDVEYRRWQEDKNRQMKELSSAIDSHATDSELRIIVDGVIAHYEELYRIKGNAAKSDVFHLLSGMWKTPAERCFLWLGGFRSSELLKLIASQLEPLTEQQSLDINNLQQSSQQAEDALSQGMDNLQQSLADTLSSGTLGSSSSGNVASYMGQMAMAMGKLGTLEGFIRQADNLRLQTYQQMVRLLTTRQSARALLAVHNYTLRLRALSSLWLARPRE

T2: WRKY53 (Arabidopsis thaliana, UniProt Q9SUP6 1-324)
T2 sequence: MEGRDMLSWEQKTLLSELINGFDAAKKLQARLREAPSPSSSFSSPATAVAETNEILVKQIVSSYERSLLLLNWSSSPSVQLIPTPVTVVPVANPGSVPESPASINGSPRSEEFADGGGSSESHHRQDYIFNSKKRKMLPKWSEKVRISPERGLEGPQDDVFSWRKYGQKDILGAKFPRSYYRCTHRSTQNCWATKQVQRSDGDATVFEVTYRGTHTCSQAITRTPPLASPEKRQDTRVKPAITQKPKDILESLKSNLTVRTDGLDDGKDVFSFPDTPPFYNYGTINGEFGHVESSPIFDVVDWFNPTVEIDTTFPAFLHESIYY

B1: PR1 w-box probe (dsDNA)
DNA 1: TTTATTTGAAAATTGACTGTAGATATAAAC
DNA 2: GTTTATATCTACAGTCAATTTTCAAATAAA
B2: PDF1.2 w-box probe (dsDNA)
DNA 1: ATAATTATTCTTGACTGATGTATGCATATA
DNA 2: TATATGCATACATCAGTCAAGAATAATTAT
B3: PDF1.2 as-1 probe (dsDNA)
DNA 1: ATGTTGTATTTGTTCGACGATGACGAAGGT
DNA 2: ACCTTCGTCATCGTCGAACAAATACAACAT

How the values were obtained:
Test in all cases: EMSA
[1] = molecular target: CAM5 (Arabidopsis thaliana, UniProt Q682T9 1-149)
[2] = molecular target: T1, TGA5
[3] = molecular target: T2, WRKY53

| Binder | binding result [1] | binding result [2] | binding result [3] |
| --- | --- | --- | --- |
| B1 | no binding | binds | binds |
| B2 | no binding |  | binds |
| B3 |  | binds | no binding |
